For orientation: stoichiometry N means the number of molecules, sites or subunits per partner or assembly.

Results on three molecules are retold here after article PMC4146490 (Nature communications, 2014).

B1: hnRNP A0, full length, recombinant (natural protein, UniProt Q13151 1-305, looked up)
chain: MENSQLCKLFIGGLNVQTSESGLRGHFEAFGTLTDCVVVVNPQTKRSRCFGFVTYSNVEEADAAMAASPHAVDGNTVELKRAVSREDSARPGAHAKVKKLFVGGLKGDVAEGDLIEHFSQFGTVEKAEIIADKQSGKKRGFGFVYFQNHDAADKAAVVKFHPIQGHRVEVKKAVPKEDIYSGGGGGGSRSSRGGRGGRGRGGGRDQNGLSKGGGGGYNSYGGYGGGGGGGYNAYGGGGGGSSYGGSDYGNGFGGFGSYSQHQSSYGPMKSGGGGGGGGSSWGGRSNSGPYRGGYGGGGGYGGSSF
B2: hnRNP A2, full length, recombinant (natural protein, UniProt P22626-2 1-341, looked up)
chain: MEREKEQFRKLFIGGLSFETTEESLRNYYEQWGKLTDCVVMRDPASKRSRGFGFVTFSSMAEVDAAMAARPHSIDGRVVEPKRAVAREESGKPGAHVTVKKLFVGGIKEDTEEHHLRDYFEEYGKIDTIEIITDRQSGKKRGFGFVTFDDHDPVDKIVLQKYHTINGHNAEVRKALSRQEMQEVQSSRSGRGGNFGFGDSRGGGGNFGPGPGSNFRGGSDGYGSGRGFGDGYNGYGGGPGGGNFGGSPGYGGGRGGYGGGGPGYGNQGGGYGGGYDNYGGGNYGSGNYNDFGNYNQQPSNYGPMKSGNFGGSRNMGGPYGGGNYGPGGSGGSGGYGGRSRY
B3: DAZ associated protein 1 (DAZAP1), full length, recombinant (natural protein, human, UniProt Q96EP5 1-407, looked up)
chain: MNNSGADEIGKLFVGGLDWSTTQETLRSYFSQYGEVVDCVIMKDKTTNQSRGFGFVKFKDPNCVGTVLASRPHTLDGRNIDPKPCTPRGMQPERTRPKEGWQKGPRSDNSKSNKIFVGGIPHNCGETELREYFKKFGVVTEVVMIYDAEKQRPRGFGFITFEDEQSVDQAVNMHFHDIMGKKVEVKRAEPRDSKSQAPGQPGASQWGSRVVPNAANGWAGQPPPTWQQGYGPQGMWVPAGQAIGGYGPPPAGRGAPPPPPPFTSYIVSTPPGGFPPPQGFPQGYGAPPQFSFGYGPPPPPPDQFAPPGVPPPPATPGAAPLAFPPPPSQAAPDMSKPPTAQPDFPYGQYAGYGQDLSGFGQGFSDPSQQPPSYGGPSVPGSGGPPAGGSGFGRGQNHNVQGFHPYRR

For experiment [1], the target named is B3. The experiment in a line: ITC. On the technique in general: Isothermal titration calorimetry measures the heat released or taken up as one component is titrated into another.
In experiment [2] the target is B1. Description: ITC.

Turning to B1, in experiment [1], the binding result was “binds”.

In the case of B2, in experiment [1], the binding result is “binds”.

As for B3, the “stoichiometry N” value in experiment [2] came to 1.
